For the experiment, the target named is MrgX1 (Mas-related G-protein coupled receptor member X1) (UniProt Q96LB2). In words: cell-based or functional assay.
MrgX1 (Mas-related G-protein coupled receptor member X1), sequence (Q96LB2 whole entry): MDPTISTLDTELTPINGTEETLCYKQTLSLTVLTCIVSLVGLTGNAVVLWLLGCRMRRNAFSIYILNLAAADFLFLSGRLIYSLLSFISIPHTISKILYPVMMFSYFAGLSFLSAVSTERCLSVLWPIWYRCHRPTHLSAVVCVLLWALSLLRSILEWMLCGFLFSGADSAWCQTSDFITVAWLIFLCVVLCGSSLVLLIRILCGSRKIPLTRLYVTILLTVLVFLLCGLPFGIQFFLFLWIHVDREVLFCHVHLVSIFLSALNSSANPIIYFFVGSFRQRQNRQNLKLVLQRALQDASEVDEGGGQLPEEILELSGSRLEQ

With “BAM22 (bovine adrenal medulla peptide 22) (from UniProt P01211 206-227)”, the EC50 of calcium flux dose response was above 50 nM.

The values above are taken from US20120129776A1.
